# Test results as given in the DeepSol protein solubility set.
# Assay: soluble on expression in E. coli; label from the status in PepcDB or PDB records
row,Sequence,soluble on expression in E. coli
1,MGSDKIHHHHHHMNKIAVIGKVFVDIKGTSFAPLHKDAKNVGDITFSNGGTGRNVAQNLAVLGNDVRFISTVTNDQIGVGVLEELKSYGANVDHVEMLEDHGMGMWLAVMDNEGDLQTSISKQPDAKLLEEAILRQSVYALDGVDAVAIDLDLSVTVLERLIHICRKMELPLYGVCGHLSVIERNRHLLQGFTGFICSREEAEILSDLSIVTVEDAIHVANELAKKGAPFTVVTMSELGAVYVDRRTATSGHVGTKKVKVVDSTGAGDSFFSAVLSELTESKRAEEALQLGMKVAAQVIASTENGLIPEMLETLR,not soluble
2,MLQIIVPMAGAGSRFAVAGYTDPKPLIPVHGVPMIKVVIDNLTPDCPHRFIFICQAEQVAAYGLREKLNAWAPGCGIVELGGLTGGAACTVYAARHLINYDQQVMIANSDQYVDVDINAYLHAMNECDAAGLIMTMKASDPKWSFVGFDSQGHINRVVEKEVISDEATVGIYNFRSGGQLVSAIEAMVLKDLRVNGEFYVAPAYNELIEQGAKVIHYSIGAEGHGMYGLGIPVDLNLFLSLPLSRQAASGVGNLEHHHHHH,not soluble
3,MSYKGSSIPVCSRISSLYFFSVYLQDLADMEDRTSTSRCSSTTRIKPTKIAGFGTVPLLSSAGTNQSVLSTKSAKSCLSNTIAASMTEPQVSMTQVDRMYEDNLARKKRSMVAVSEFNKIYGQEYHPPSSSESTRSFYENIDAVYPSSKASESSSSSASTGSSDNRKDIEKWEKLDSEAESDIELFIKVSDCFD,not soluble
4,MGSDKIHHHHHHMTPTVLLANPRGFCAGVDRAIAIVERALEKFGAPIYVRHEVVHNTFVVDDLKRKGAVFVEELSEVPAGATVIFSAHGVSQAVRTEAAARGLTVFDATCPLVTKVHVEVSKMRDKGYEIVMIGHKGHPEVEGTLGQSAGGMYLVETPGDVATLEVTNPDCLAYVTQTTLSVDDAARVVDALRARFPTITGPKKDDICYATQNRQDAVKHLASQCDVVIVVGSPTSSNSNRLREVAENLGIAAYMVDNADEIDPRWVSGNQRVGVTAGASAPDVLVRAVIDRLERLGICSVSELDGVQEKVGFPLPRELA,not soluble
5,MGSDKIHHHHHHMPKNWTLKVDQYINANSNCIIATAHVDSFPTDLPLEPNIREPNLKSSTYKQIFDSLTTEPEKFFQRNNGIVLCVNKVKPKNRTELELEILQANEGGNDGVINGGHSVSAFEQARKFKYDLTLARVKVTIHIGLSEDEAKDIALASNTSAPVDARSKVNARGDYQFIKQFLAQLEREEDTKFRIAYYQNQSGAPKSPQCNVNHLIKLMNCLDRNKYNPNTNKSKGKHPPVSNNPSLTDAERERLSRLLPLLPKALWIEQRFFKTIEAYITNPKKKGVDLASIDARKNTLLPDSRYSFGFSAPADIAMPIVAAYRVFLDENYNWLIPFDDFAEDFLQHLWNNYYRKYLVSEKFSGNTVGSKICRNPVIWDSLYVSAQSYLNQQLLKMVSSSKNKREELKLAN,not soluble
6,QIQLTQSPSSLSASVGDRVTITCSASSSVNSSALFWYQQKPGKAPKPWIYLTSNLASGVPSRFSGSGSGTDYTLTISSLQPEDFATYYCQQISGNPWTFGQGTKVEIKRADAAPTVSIFPPSSEQLTSGGASVVCFLNNFYPKDINVKWKIDGSERQNGVLNSWTDQDSKDSTYSMSSTLTLTKDEYERHNSYTCEATHKTSTSPIVKSFNRNEC,soluble
7,MAHHHHHHMKATKAKSGNTATNAVPFNNAPLKIVFLDCDGVVSPFGGPLFAPRQMKFLADIINGSGAQIVLSSSWRTTDFGRKEVARQLTQFGMPVFIDCTPTLPDKPRSVEILSWIDSNKRKYNIVNFVALDDINLPLSAPDRNFFARHAIVTNATTGLTEANVKQALQMLSDTNNI,soluble
8,MTESNGNSEITTTEGNTGPVVESSLDPLAGRPEQSEDDIAKASDVEEYLRDVIDPELGINVVDLGLVYDIWMEGSIHAHVNMTLTSPACPLTDVIEDQAESAVVGNKVAETLTIHWVWMPPWGPHMITEDGREQLRALGFSV,not soluble
9,MGSDKIHHHHHHMQSGYYSSTGGIVTQFHRLDMISNNLANANTTGFKRDDVVIGDFLRLYEQQKEPLPLEDQTREAAKFLNRAMDRVPSIVEEYTDRSIGGITPSENRFDFALQSENAYFMIETPEGIRYTRDGSFTLNSEGRLVTKEGFAVLPREFVQSRQYIDIPDGVVIEADRNGNLYSRTLNNDELGDIIPLGNIAIASFENPKYLEKTGKNLYEYPQERMGERNLATNSGALVQGYLEKSNVNAVWEMTGLIETNRLVDMYSKVMKTHMDDLNTEAITKLAVKA,not soluble
10,MAHHHHHHMSDSEWSSDSGVSNAEAIAAASLNKHLGELMTLQHPSRVTHRRPAYATSEGTTASSATISHTPRVSGEAPRKQARMDISSLIRQALSQSSAHCTSANVDEVAGRVVAALRQKAGGAEVARAVTRALADPLNEELRESVLSGLLRPEELVALDEVSLLNQAERSVLAKARRERLNQHSVEYLERLNLTVTNMLTCPECRSHECYANFRFTDFVKWQGDDQTPTLQRCCRCSVSFCNERGKRAASAPGACLCAWVAVKVLSATTASRPCIHPSSNRHRTARRGSTRETGKISRFSSCRTRHHFCQKR,not soluble
11,MNDVSKASLPKAIFLMGPTASGKTALAIELRKVLPVELISVDSALIYRGMDIGTAKPNADELKAAPHRLLDIRDPSQAYSAADFRRDALAQMAEITAAGRIPLLVGGTMLYFKALLEGLSPLPSADPEVRSRIEQQAAELGWEALHQQLQEIDPVAAARIHPNDPQRLSRALEVFFISGKTLTELTQTSGDALPYQVHQFAIAPASRELLHQRIELRFHQMLASGFEAEVRALFARGDLHTDLPSIRCVGYRQMWSYIEGEISYDEMVYRGVCATRQLAKRQMTWLRGWEGVRWLDSENPDRARKEVLQVVGAIADMAGDPLEHHHHHH,not soluble
12,MKFNSMFSPIDIGPMKVPNRFVVSPMCNNYANTDGTLSDTSLAYYKERALGGFGLITFEATVVDVRAKGGANKACLYSDHQIASFKRVIDVCHDAGAKISVQLQHAGPEGNSKVSGYPLRAASAIASAAGRNTPEAISREELYELIELYGEAALRAKKAGADAVEVHCAHGYLVSSFLSARTNKRVDEFGGCFENRMRLPRLIIESIRKRVGHSIAILCRINSTDGVDGGLSVQDSATVAAYLEDCGLDGLHVSRSVHIRDEYMWAPTVLHAGFSSDLVTQIKRAVSIPVITVGRFTEPHYAELMVREGRADLVAFGRQSLADPETPNKAAAGKLDELLPCIACLQGCVANMYAGKPITCLVNPLLGRESEAYLPKTPSKKVVVVGGGVGGLYAGWMAGSRGHDVTVYEASDMIGGQMRLAAYPPGKGDLTNMVRSYIKKCEQFDVEIKTNTPVTLELIQEVAPDAVIIATGATPLVLPIPGIEDAGLIHAVDLLDGKEKCGQKVLVVGGGMVGSETAAFLGEAGHDVTVVELRDEVGADVISEHRKFLMHDFDEYKIKSVTNAKVTSFFEDGVTYSLADNKEQRIDGFDSVVLAMGSRAYNPLEEAIKAIVPETYVIGDAVRARRALDATKEALDAVLQL,not soluble
13,MGTLSVNQNKLQKRLRRLAGEAVADFNMIEEGDKVMVCLSGGKDSYTLLDVLMHFQKVAPIRFDIVAVNMDQKQPGFPEHVLPAYLKELGVEYHIVEKDTHSVVKELIPEGKTTCSLCSRLRRGTLYTFADQIGATKMALGHHRDDIIETFFLNMFFNGALKAMPPKLRADDGRNVVIRPLAYCHEKDIQAYSDLKQFPIIPCNL,not soluble
14,MSEFFIQEQQLGKVTRTIVKDQAGRSLFLLVGRWGTRGDALSLYAMNGEILASIKQVSWTFGTRFELYQRFEKVGTLRKLFNLNADFYYVQGLHWAVVGDIKAHQYSIYQVHKKIMSMDKTMLCTGDYFVLTVANDEDAPLCICIAAVLDYWLYNKKKQKTSDDFGLDFDPLTD,not soluble
15,MAAFAVDPQAPTLGSEPMMLGSPTSPKTGANAQFLPGFLMGDLPAPVTPQPRSISGPSVGVMEMRSPLLAGGSPPQPVVPAHKDKSGAPPVRSIYDDISSPGLGSTPLTSRRQANISLLQSPLVGATPPVPGQSMFSPANIGQPRKTTLSPAQLDPFYTQGDSLTSEDHLDDTWVTVFGFPQASASYILLQFAQYGNILKHVMSNTGNWMHIRYQSKLQARKALSKDGRIFGESIMIGVKPCIDKNVMENSDRGVLSSPSLAFTTPIRTLGTPTQSGSTPRVSTMRPLATAYKASTSDYQVISDRQTPKKDESLVSRAMEYMFGW,soluble
16,MSDLVMFEPGASTSTDVPTNTDQTAMSTTQVVDALECDTFEGLMNVNETYVEILDSALLSVQQHLDDNLKRQQQLKEEYRLYNRADITKRKVPVHLYMPPYFKDDNNMYPPMSSEAREKQVLKWFDPMMKEEKKWTPSEIKTLRTSVKNALVAHQVQPWCSRRDIVASKLRDADITTSNFDRRQWTMELEDLMRKIAYVREKSEEEVLTASADYTVVPWTAIANFDFKGSRTEWAVKSKWYNELNPKWNKEHWSNEEVEKLKYLRESPKFVSWPMLALNLGTNRTSYQCMEKYKTEVSQHSKEWSQDEDTKLIALTKITSINGHIQWDKVAQCMPGRTRQQVRTRFSHTLDASVKHGRWTDQEDVLLVCAVSRYGAKDWAKVAQAVQNRNDSQCRERWTNVLNRSAHVNERFTLVEDEQLLYAVKVFGKGNWAKCQMLLPKKTSRQLRRRYLQLIAAKLRLAAGFCNAVDAMKSGRRAPEEDELEQEDIVEAEQIPNELMKEVYEKFANENPDMNETPEEFYKRVSALERPAAARIRALKNKPDYQKIQDKINEIVQKHKNAAEIDKELHSSEILSSLTITEVDVRYMIERSKTLTRYYEARQFRKNVDQIGCRVRPIKIDLDPETMPTFDPNDAEDEKQMVIVESLCSVIRAHDVKEWGTKFWNEHRFTAPKYAKRFVENMVINKSKEVAEWYLHVNSKSCNQNDVHCPAKSTLPPTAASFDLHKMLQKARSGLNRLSAEHFYPLDVSLAQQFNFKNDEREGLDGDRRMHIGLSDEVTNSKEYANFYARMRSILLEPMRLGIARESSSDETKRLVRCLAEERACDEEQQVTCDQIRRRRMPDDEIYVTPTSISRELNNGMKIDTTELLANLDKNSAKKIRMKRKIGEVRCDTKIKLLPLVILATVATVAARPARPPRSSAGTPTPSHVSIDTESNISLKVELD,not soluble
17,PEKVTVVPKFGDWDENNPSSADGYTHIFNKVREER,soluble
18,MEFMKLAIEEAKKGMEKGDGGPFGAVIVKDGKVIGSGHNMVLVTKDPTAHAEVTAIRNTCKNVDNFDLSGCQLYTSCYPCPMCMGAALWSRVDAIYYGATSQDAANIGFGDHEFHEFLQNPKSDDKRKLEQFKVDNYLEPFQLWSKKDNKELY,not soluble
19,MPPMAKNAAVTDVVHLDSDSDSDNGVVGGRESASTIAGAATMAPRETLECRSFWKAGDYFVIPNVVTPTAPAIAELLDNAVDEIQNGATFVKIDKINIVKDNSPALVFQDDGGGMDPAGLRKCMSLGYSSKKSNTTIGQYGNGFKTSTMRLGADAIVFSRSTRGGTSTQSVGILSYTFLRKTGQDDVTVPMIRYVMQIDIDISKERPQPIIYGSPEDWAANLEILLKWSPFSTEDELLQQSVLLIFLFPSSTHQFEDVGTHGTKVIIYNLWLNDEGIYELSFDDDEEVTHTFPQLIYTRRDILPEDIRLRDESVNDGKRLHHKILELRSHISYHLRYSLRAYASMLYLKKFKNFKIIIRGIPVEQFNIADGFRFPEIIKYKPHTATTEQASTEIKIGFVKEAPKLAICGFNVYHKNRLIRDTGNNLDGKSAGEIRQENLQLFMRYIYKKRKIRISISYLCGDLNQILFFNRCEEYIKKENETEQTVKSLEKELEEFKSKCAHLALLVDAKKKEMQQA,soluble
20,MELSLSRVHFPVTTLGPGRRLGIWFQGCSIRCPGCISADTWGPGRRRIALARLLADIQPWLEQAEGITVSGGEPFEQFAALLALLGELRRRSRADILVYSGYPLEHLHAQLEQAAGLIDALISDPYQQHAEQSLALRGSDNQRLSLLTELGRARLGGYQRPLREDDKALDLMFDHDGSVWMAGIPRRDDLLRLQDLLREQGHQLSVSAHRPR,not soluble
21,FSKTQRWAEPGEPICVVCGRYGEYICDKTDEDVCSLECKAKHLLQVKEKEEKS,soluble
